# Tests used:
# [1] = molecular target: rFull-MDP1 (full-length HIS-tagged recombinant mycobacterial DNA-binding protein 1) (M. tuberculosis) (UniProt P9WMK7); experiment: cross-linking
# [2] = molecular target: the molecule itself; experiment: […], buffer pH 7.0 with 300 mM NaCl, […]
molecule,measurement,setting,value
rFull-MDP1 (full-length HIS-tagged recombinant mycobacterial DNA-binding protein 1) (from UniProt P9WMK7 1-216) (natural protein),stoichiometry N,[1],2
"rN-MDP1 (amino acids 1-100 of mycobacterial DNA-binding protein 1, histidine-tagged) (domain or fragment, also called N-terminal half of MDP1) MGMNKAELIDVLTQKLGSDRRQATAAVENVVDTIVRAVHKGDSVTITGFGVFEQRRRAARVARNPRTGETVKVKPTSVPAFRPGAQFKAVVSGAQRLPAE",stoichiometry N,[2],2
